In patent US20150182631A1, “SYSTEM FOR […]-BASED ACTIVE INGREDIENTS” (Centre National De La Recherche Scientifique-CNRS, priority 2012, published 2015):

Assays:
[1] = FRET kinetics of subunit exchange (tetramer dissociation); format: physicochemical
Method: The speed of the exchange of subunits was measured by the same technique. The reaction is initiated by mixing the same volume of XCL-RITC (1 μM) and of XCL-FITC (1 μM) at 25° C. in 50 mM of phosphate buffer, 100 mM NaCl, pH 8.5. The excitation is carried out at 468 nm and the fluorescence emission at 580 nm is recorded every 0.5 seconds. The fluorescence intensity is normalised by using the equation: […]
where F(t) represents the experimental fluorescence in the time considered, F0 the value of the initial fluorescence, and F∞ the value of the final fluorescence when the state of equilibrium is reached. The kinetic data was modelled with the GOSA software (Czaplicki et al. (2006)). The best model was obtained for a double exponential of equation:
F=1−[a×e^−k^1^t+(1−a)×e^−k^2^t]
where: a represents the proportion of molecules at slow dissociation, k1 the kinetic constant of the slow dissociation and k2 the kinetic constant of the fast dissociation.
The dissociation kinetic of the tetramer was studied by mixing XCL-FITC and XCL-RITC and by measuring the fluorescence emission intensity at 580 nm as a function of time (FIG. 6).
The increase in the fluorescence intensity and therefore the effectiveness of the transfer between the fluorescein and the rhodamine are the result of two successive phenomena: firstly the dissociation of the tetramers into dimers and secondly their reassociation. Considering the shape of the curve (FIG. 6), no lag time is observed at the beginning of the kinetics which implies that the speed of reassociation is much faster than the speed of dissociation. It can therefore be considered that the speed of reassociation is negligible in this case. The kinetic data obtained was modelled using the GOSA software. The most suitable model for describing the phenomenon observed is a double exponential growth with two dissociation reactions that have difference speeds: […]

[2] = Confinement of fluorescein in the lectin cavity; conditions: 4 days at ambient temperature, free fluorescein eliminated again
Method: The confinement experiments are carried out by incubating the wild-type protein (XCL) or the mutants (A38C) with the molecule to be tested. In order to carry out the control experiments with the mutant A38C, an oxidation step is carried out in the presence of GSSG in a phosphate buffer 50 mM, 100 mM NaCl, pH 7.2, OVN. The GSSG is then eliminated on a PD-10 sephadex G-25M column (GE Healthcare) pre-balanced in a phosphate buffer 50 mM, 100 mM NaCl, pH 8.5. The eluate is concentred at 1 ml on Vivaspin 15R 30,000 MWCO (Sartorius stedim). A batch of A38C is reduced to TCEP (under argon) with adding of NaOH for a final pH of 8.5. […] The quantity of fluorescein is measured by using an absorption coefficient of e511 nm=75,000 cm^−1 M^−1. The concentrations of XCL and of A38C after the confinement are calculated with e278 nm=[…]. The percentage of confinement is calculated by forming the ratio of the fluorescein/protein concentrations.
In the case with XCL, the inventors incubated the protein (15 μM) with fluorescein (10 mM) and then separated the protein from the non-confined molecules of fluorescein by two successive gel filtration columns. Beforehand, the inventors verified that if these two columns on the fluorescein solution are carried out at 10 mM, no residual free fluorescein is detected. […]

[3] = Thermal dissociation by NMR DOSY; format: physicochemical
Method: The thermal dissociation was also followed by DOSY experiments (Diffusion Ordered SpectrometrY). The ratio of the hydrodynamic radius of XCL and of the dioxane were measured according to the temperature (FIG. 9).
If the tetramer is dissociated by increasing the temperature, a decrease in this ratio is expected and therefore of the hydrodynamic radius of XCL. […] After 50° C., the protein sample precipitates out as already described in the fluorescence experiments with tryptophan.

[4] = Balanced FRET, exchange of monomers; format: physicochemical; conditions: 1 h incubation, pH 8.5
Method: Fluorescence energy transfer was used to reveal the exchange of the XCL monomers. The exchange reaction is initiated by mixing the same volume of XCL-RITC (1 μM or only the buffer as a reference) and of XCL-FITC (1 μM) at 25° C. in 50 mM of phosphate buffer, 100 mM NaCl, pH 8.5. After one hour of incubation, the emission spectrum of the sample excited at 490 nm is recorded by spectrofluorimetry (Photon Technology International QM-4). The same experiments were carried out with A38C-RITC and A38C-FITC.
The oligomerization balance of the XCL protein was characterised by the measurement of the appearance of resonance energy transfer of the Förster type (FRET) between two populations of XCL labelled separately either with FITC (Fluorescein IsoThioCyanate) or with RITC (Rhodamine IsoThioCyanate).
In this same figure, is also shown the spectrum obtained by mixing the labelled protein, either by the donor or by the acceptor (dotted line curve). This spectrum was deconvoluted, which gives the spectra shown as a dotted line in FIG. 2A.
For the purposes of comparison, the same experiment was carried out with the variant A38C. This variant is covalently bonded by two additional disulphide bridges. A perfectly superimposable spectrum was obtained after mixing donor and acceptor labelled proteins and incubation of this mixture for 1 h at ambient temperature (dotted lines of FIG. 3B).

[5] = 25° C., pH 8.5, double exponential model

B1: XCL: Xerocomus chrysenteron lectin, fungal sporocarp lectin forming a tetramer with central cavity, SEQ ID NO: 1 (protein)
chain: MSYSITLRVYQTNRDRGYFSIVEKTVWHFANGGTWSEANGAHTLTQGGSGTSGVLRFLSTKGERITVAVGVHNYKRWCDVVTGLKPDETALVINPQYYNNGGRDYVREKQLAEYSVTSAIGTKVEVVYTVAEGNNLEANVIFS
modifications: Xerocomus chrysenteron
[1]; [5]
  a: proportion of molecules engaged in the slow reaction: 0.39
  k1: kinetic constant of the slowest dissociation reaction: 0.72 min⁻¹
  k2: kinetic constant of the fastest dissociation reaction: 2.52 min⁻¹
[1]; mixing XCL-FITC and XCL-RITC
  time until balance of fluorescence intensity at 580 nm is reached: more than 300 seconds
[2]
  confinement rate after incubation: remained unchanged
[3]; DOSY
  temperature after which the protein sample precipitates out: > 50 °C
[3]; ratio of hydrodynamic radius of XCL and dioxane
  hydrodynamic radius versus temperature: no transition in the hydrodynamic radius is observed
[4]
  FRET between FITC- and RITC-labelled protein after mixing (monomer redistribution): monomers have been redistributed
